Among the data in publication PMC5771497 are binding result and Kd values, retold here.

Data set [1] addresses T1, PRC2 5-mer (EZH2-EED-SUZ12-RBBP4-AEBP2) (Homo sapiens, UniProt Q15910-2;O75530;Q15022;Q09028;Q6ZN18 1-751;1-441;1-739;1-425;1-517). Nature of the data set: competition.
The target in data set [2] is T1, PRC2 5-mer (EZH2-EED-SUZ12-RBBP4-AEBP2). Nature of the data set: competition. The source holds these as a separate data set.
For data set [3] the target is unchanged. Nature of the data set: EMSA. (Mobility shift assays separate free from complexed probe on a gel.)
Data set [4] shares this target. Nature of the data set: fluorescence polarization. (Polarisation of emitted light reports the rotation of a fluorescent probe.)

For orientation: Kd means the equilibrium constant for the complex coming apart. High values mean a looser complex, low ones a tighter complex.

B1: (GGAA)10 RNA (structured_RNA)
RNA: GGAAGGAAGGAAGGAAGGAAGGAAGGAAGGAAGGAAGGAA
For the molecule B1, in data set [1], the binding result is listed as “binds”.

B2: Poly(A)40 RNA (ssRNA)
RNA: AAAAAAAAAAAAAAAAAAAAAAAAAAAAAAAAAAAAAAAA
With B2, the binding result in data set [2] is listed as “no binding”.

B3: (mCpG)24 dsDNA (dsDNA)
DNA 1: CGCGCGCGCGCGCGCGCGCGCGCGCGCGCGCGCGCGCGCGCGCGCGCG
DNA 2: B3 DNA 1
modifications: 5-methyl-C at CpG
With B3, in data set [3], binding was put at a Kd of 11.3 ± 6.2 nM.

B4: (CG)30 dsDNA (dsDNA)
DNA 1: CGCGCGCGCGCGCGCGCGCGCGCGCGCGCGCGCGCGCGCGCGCGCGCGCGCGCGCGCGCG
DNA 2: B4 DNA 1
With B4, the binding result in data set [4] was “binds”.
